According to paper PMC3927496:

Experiments:
[1] = molecular target: thrombin (UniProt P00734;P00734 328-363;364-622); test: SPR
[2] = molecular target: VEGF165 (Homo sapiens, UniProt P15692-4 27-191); test: SPR

B1: Linker 10 (15-mer-T10-29-mer) (structured_DNA)
DNA: GGTTGGTGTGGTTGGTTTTTTTTTTAGTCCGTGGTAGGGCAGGTTGGGGTGACT
Question: For B1, which Kd [1] is on record?
Answer: 0.74 nM

Question: With GGTTGGTGTGGTTGGTTTTTAGTCCGTGGTAGGGCAGGTTGGGGTGACT (structured_DNA) [Linker 5 (15-mer-T5-29-mer)] as the binder, how does the Kd [1] read?
Answer: 0.06 nM

Question: For GGTTGGTGTGGTTGGAGTCCGTGGTAGGGCAGGTTGGGGTGACT (structured_DNA) [Linker 0 (15-mer-29-mer)], which Kd [1] is on record?
Answer: 0.14 nM

B2: VEa5 (ssDNA)
DNA: ATACCAGTCTATTCAATTGGGCCCGTCCGTATGGTGGGTGTGCTGGCCAGATAGTATGTGCAATCA
Question: Which Kd [2] does the source give for B2 here?
Answer: 116 nM
